Experimental findings from paper PMC4739419, “Mutations in the nucleotide binding and hydrolysis domains of Helicobacter pylori MutS2 lead to altered biochemical activities and inactivation of its in vivo function” (BMC Microbiology, 2016) are described below.

Read-outs that look alike come from different tables or passages of the source.

Data set [1] is described as follows: Far-UV circular dichroism spectroscopy. As to conditions: protein 1 μM, far-UV CD 200–300 nm. Format: physicochemical. How it is done: Fig. 3 Mutation induced conformational changes in HpMutS2. a CD-spectroscopy of HpMutS2, HpMutS2-G338R, and HpMutS2-E413A. Far-UV CD spectra of proteins (1 μM) dialyzed in 50 mM Tris-Cl and 100 mM NaCl were recorded between 200–300 nm with 20 mdeg sensitivity at a scan speed of 50 nm using 2 mm path length cuvette with a bandwidth of 2 nm. The spectra were recorded using Jasco-815 spectropolarimeter. Size exclusion chromatographic analysis of b HpMutS2, c HpMutS2-G338R, and d HpMutS2-E413A was performed using Superose-6 gel filtration column at a constant flow rate of 0.3 ml/min. Approximately 150 μg of all the proteins were spun at 10,000 rpm for 10 min at 4 °C before injection. The absorbance was recorded at 280 nm
Freshly prepared proteins were dialyzed twice in buffer B for 4–6 h with at least two changes of the buffer. Far-UV CD spectra of proteins (1 μM) were obtained using a Jasco-815 spectropolarimeter equipped with a Peltier stage (Japan Spectroscopic Co., Japan) at 25 °C. The spectra were recorded between 200–300 nm with 20 mdeg sensitivity at a scan speed of 50 nm using 2 mm path length cuvette with a bandwidth of 2 nm. […] Thermal denaturation of the proteins was monitored at single wavelength (222 nm) by increasing temperature from 25 °C-80 °C. The percentage of unfolded protein was calculated by considering the protein at 25 °C as 100 % folded.
A general note: Circular dichroism is the unequal absorption of left and right circularly polarised light.

A further data set concerns the target Holliday junction. Kind of data set: Electrophoretic mobility shift assay (EMSA). The note with it: for Kd: read-out: DNA binding affinity (dissociation constant); for fold reduced affinity compared to wild-type: no nucleotide. Format: binding. How it is done: (§1) Fig. 5 Effect of nucleotide cofactors on DNA binding activity of HpMutS2 and mutants. Electrophoretic mobility shift assays were performed by incubating radiolabeled DNA substrates (0.16 nM) with increasing concentrations of proteins as described in Methods section. Nucleotides (1 mM) were added separately to the reaction mixtures. After incubation of 30 min on ice, the reaction mixtures were electrophoresed on native PAGE (8 %) at 4 °C. (a, panel 1–6) Interaction of HpMutS2 and mutants with single-stranded DNA. b-g Plots of percentage of bound DNA substrate (ssDNA and Holliday junction) versus protein concentration. The percentage binding was calculated by measuring the depletion in substrate DNA considering DNA without protein as 100 %. Error bars represent standard deviation from two or more different experiments. Schematic representation of DNA substrates used are shown at the left side of figures
(§2) Radiolabeled DNA substrates (0.16 nM) were incubated with increasing concentrations of HpMutS2 and mutants in buffer A with 1X BSA (0.1 μg/μl). ATP, ADP, and ATPγS (1 mM each) were added separately to the reaction mixture. The NaCl concentration was maintained to 110 mM by adding storage buffer C to the reaction mixture. After incubation of 30 min on ice, the reaction mixtures were electrophoresed on native PAGE (8 %) at 4 °C. The gels were transferred on to Whatman 3 mm paper and dried under vacuum at 80 °C for 45 min. The gels were visualized by phosphorimaging and quantified using Image Gauge (Version 3.0). The dissociation constants were determined by non-linear regression analysis and calculated by plotting the percentage of bound DNA versus concentration of protein using “One site - Specific binding with Hill slope” equation of the GraphPad Prism 5 software.
On the technique in general: A gel shift assay detects complexes by their altered migration in electrophoresis.

For a further data set, the system named is Single-stranded DNA. In words: Electrophoretic mobility shift assay (EMSA). Format: binding. As to conditions: for fold reduced affinity compared to wild-type: no nucleotide; for Kd: read-out: DNA binding affinity (dissociation constant). How it is done:
as §1, §2

The next data set relates to H. pylori strain 26695. In words: Recombination assay (incorporation of streptomycin resistant chromosomal DNA). Format: cell-based, Helicobacter pylori. The note with it: for fold higher recombination / transformation frequency than the wild-type strain: HpMutS2-E413A over-expressed in the wild-type strain. How it is done:
The construction of hpmutS2-disrupted strain, complements, and calculations of recombination frequencies were performed as described in [7]. Briefly, H. pylori strain 26695 was used to disrupt hpmutS2 gene by allelic replacement using a chloramphenicol resistance cassette and to generate integrations. The wild-type and mutants of HpMutS2 preceded by ureA promoter and containing an apramycin resistance cassette were integrated into a non-essential ureA locus. The correct constructions were verified by PCR and the expression of proteins was monitored by Western blots. Recombination frequencies were determined by rate of incorporation of streptomycin resistant isogenic total chromosomal DNA (200 ng) per cfu. P values were calculated using the Mann–Whitney U test. At least two independent clones of each construction were used to determine the recombination frequencies. All DNA constructs were introduced using natural transformation. H. pylori was grown on BAB plates at 37 °C under microaerophillic conditions.

Data set [2] deals with the molecule itself. Kind of data set: SEC; Superose-6 HR 10/30, buffer B (50 mM Tris pH 8.0, 100 mM NaCl), 0.3 ml/min, approximately 150 ug protein injected; mass from a plot of Ve/Vo versus log of molecular mass of standards. For orientation: SEC sorts molecules by how far they enter the pores of the column.

B1: HpMutS2-E413A (enzyme)
chain: MSDAPKRSLNPTLMMNNNNTPPKPLEESLDLKEFIALFKTFFAKERDTIALENDLKQTFTYLNEVDAIGLPTPKSVKESDLIIIKLTKLGTLHLDEIFEIVKRLHYIVVLQNAFKTFTHLKFHERLNAIVLPPFFNDLIALFDDEGKIKQGANATLDALNESLNRLKKESVKIIHHYARSKELAPYLVDTQSHLKHGYECLLLKSGFSGAIKGVVLERSANGYFYLLPESAQKIAQKIAQIGNEIDCCIVEMCQTLSHSLQKHLLFLKFLFKEFDFLDSLQARLNFAKAYNLEFVMPSFTQKKMILENFSHPILKEPKPLNLKFEKSMLAVTGVNAGGKTMLLKSLLSAAFLSKHLIPMKINAHHSIIPYFKEIHAIINDPQNSANNISTFAGRMKQFSALLSKENMLLGVDAIELGTDADEASSLYKTLLEKLLKQNNQIIITTHHKRLSVLMAENKEVELLAALYDEEKERPTYTFLKGVIGKSYAFETALRYGVPHFLIEKAKTFYGEDKEKLNVLIENSSALERELKQKNEHLENALKEQEYLKNAWLLEMEKQKEIFHNKKLELEKSYQQALNILKSEVASKDTSSMHKEIHKASEILSKHKTNQEIPQIITNFQANEKARYKNESVLIVQILDKGYYWIETELGMRLKAHGSLLKKIQKPPKNKFKPPKTTIPKPKEASLRLDLRGQRSEEALDLLDAFLNDALLGGFEEVLICHGKGSGILEKFVKEFLKNHPKVVSFSDAPINLGGSGVKIVKL
notes: also called Walker-B mutant
As to B1, the “reduced negative ellipticity compared to the wild-type protein” value in data set [1] is 30–34%. The values for the Kd on Holliday junction (+ ADP 1 mM), at Holliday junction (+ ATP 1 mM) and on Holliday junction (No nucleotide) were 46.4 ± 5.6 nM, 31.7 ± 3.34 nM and 30.8 ± 1.97 nM, respectively. Besides, the “fold reduced affinity compared to wild-type” value in the data set on Holliday junction is reported as ~ 2 fold; with Single-stranded DNA it was greater than 4 fold. The “fold higher recombination / transformation frequency than the wild-type strain” value with H. pylori strain 26695 is reported as ~ 5 fold. Further, in data set [2], the binding result is “binds”.

B2: HpMutS2-G338R (protein)
chain: MSDAPKRSLNPTLMMNNNNTPPKPLEESLDLKEFIALFKTFFAKERDTIALENDLKQTFTYLNEVDAIGLPTPKSVKESDLIIIKLTKLGTLHLDEIFEIVKRLHYIVVLQNAFKTFTHLKFHERLNAIVLPPFFNDLIALFDDEGKIKQGANATLDALNESLNRLKKESVKIIHHYARSKELAPYLVDTQSHLKHGYECLLLKSGFSGAIKGVVLERSANGYFYLLPESAQKIAQKIAQIGNEIDCCIVEMCQTLSHSLQKHLLFLKFLFKEFDFLDSLQARLNFAKAYNLEFVMPSFTQKKMILENFSHPILKEPKPLNLKFEKSMLAVTGVNAGRKTMLLKSLLSAAFLSKHLIPMKINAHHSIIPYFKEIHAIINDPQNSANNISTFAGRMKQFSALLSKENMLLGVDEIELGTDADEASSLYKTLLEKLLKQNNQIIITTHHKRLSVLMAENKEVELLAALYDEEKERPTYTFLKGVIGKSYAFETALRYGVPHFLIEKAKTFYGEDKEKLNVLIENSSALERELKQKNEHLENALKEQEYLKNAWLLEMEKQKEIFHNKKLELEKSYQQALNILKSEVASKDTSSMHKEIHKASEILSKHKTNQEIPQIITNFQANEKARYKNESVLIVQILDKGYYWIETELGMRLKAHGSLLKKIQKPPKNKFKPPKTTIPKPKEASLRLDLRGQRSEEALDLLDAFLNDALLGGFEEVLICHGKGSGILEKFVKEFLKNHPKVVSFSDAPINLGGSGVKIVKL
B2: the “reduced negative ellipticity compared to the wild-type protein” value in data set [1] was “no significant changes”. Also, the Kd was determined as 34 ± 5.31 nM on Holliday junction (+ ADP 1 mM); 32 ± 4.34 nM on Holliday junction (+ ATP 1 mM); 21.4 ± 0.93 nM on Holliday junction (No nucleotide); 23.9 ± 2.91 nM at Single-stranded DNA (+ ADP 1 mM); 30.7 ± 3.43 nM at Single-stranded DNA (+ ATP 1 mM); 32.4 ± 3.32 nM at Single-stranded DNA (No nucleotide). For the same molecule, the “fold reduced affinity compared to wild-type” value with Holliday junction and in the data set on Single-stranded DNA was ~ 1.5 fold each time.

B3: HpMutS2: Helicobacter pylori MutS2 (1-762), C-terminally His6-tagged wild-type protein, nuclease and ABC ATPase (protein)
chain: MSDAPKRSLNPTLMMNNNNTPPKPLEESLDLKEFIALFKTFFAKERDTIALENDLKQTFTYLNEVDAIGLPTPKSVKESDLIIIKLTKLGTLHLDEIFEIVKRLHYIVVLQNAFKTFTHLKFHERLNAIVLPPFFNDLIALFDDEGKIKQGANATLDALNESLNRLKKESVKIIHHYARSKELAPYLVDTQSHLKHGYECLLLKSGFSGAIKGVVLERSANGYFYLLPESAQKIAQKIAQIGNEIDCCIVEMCQTLSHSLQKHLLFLKFLFKEFDFLDSLQARLNFAKAYNLEFVMPSFTQKKMILENFSHPILKEPKPLNLKFEKSMLAVTGVNAGGKTMLLKSLLSAAFLSKHLIPMKINAHHSIIPYFKEIHAIINDPQNSANNISTFAGRMKQFSALLSKENMLLGVDEIELGTDADEASSLYKTLLEKLLKQNNQIIITTHHKRLSVLMAENKEVELLAALYDEEKERPTYTFLKGVIGKSYAFETALRYGVPHFLIEKAKTFYGEDKEKLNVLIENSSALERELKQKNEHLENALKEQEYLKNAWLLEMEKQKEIFHNKKLELEKSYQQALNILKSEVASKDTSSMHKEIHKASEILSKHKTNQEIPQIITNFQANEKARYKNESVLIVQILDKGYYWIETELGMRLKAHGSLLKKIQKPPKNKFKPPKTTIPKPKEASLRLDLRGQRSEEALDLLDAFLNDALLGGFEEVLICHGKGSGILEKFVKEFLKNHPKVVSFSDAPINLGGSGVKIVKL
modifications: left off: His6, C-terminal, state not stated
notes: Helicobacter pylori MutS2 (1-762), C-terminally His6-tagged wild-type protein, nuclease and ABC ATPase
For the molecule B3, the Kd at Holliday junction (+ ADP 1 mM) worked out at 22.6 ± 1.39 nM; on Holliday junction (+ ATP 1 mM), 20.8 ± 2.95 nM; on Holliday junction (+ ATPγS 1 mM), 22.5 ± 1.23 nM; on Holliday junction (No nucleotide), 14.4 ± 0.82 nM; at Single-stranded DNA (+ ADP 1 mM), 17.3 ± 2.89 nM; on Single-stranded DNA (+ ATPγS 1 mM), 11.4 ± 0.19 nM. On Single-stranded DNA (No nucleotide), the Kd is 21.5 ± 2.28 nM. Also, in the data set on Single-stranded DNA (ATP 1 mM, at lower concentrations of protein), the “fold reduced ssDNA binding in presence of ATP” value was ~ 5 fold. Further, the “fold higher recombination / transformation frequency than the wild-type strain” value in the data set with H. pylori strain 26695 is on record as ~ 8 fold. In addition, the “Relative value (recombinant frequency relative to Wt)” value with H. pylori strain 26695 (Wt = 1) was found to be 7.9. Also, the Recombinant frequency in the data set with H. pylori strain 26695 (streptomycin resistance colonies per recipient cfu, average (±standard deviation)) is on record as 39.2 (±29.2) x10^−4.
